The record followed here is the RNAGym collection of RNA variant scans (doi:10.1073/pnas.2313332121).

Fewer inactive variants are shown than the library holds. Where only a bound is given, the exact number is not on record here.

B1: TPR 5TU (parent)
chain: GGAUCUUCUCGAUCUAACAAAAAAGACAAAUCUGCCACAAAGCUUGAGAGCAUCUUCGGAUGCAGAGGCGGCAGCCUUCGGUGGCGCGAUAGCGCCAACGUUCUCAACUAUGACACGCAAAACGCGUGCUCCGUUGAAUGGAGUUUAUCAUG

The variants in this data set derive from B1. Kind of data set: polymerase ribozyme fitness, log enrichment relative to wild type (log ratio); higher = more active; in vitro selection for triplet polymerase activity. A digest of the protocol: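 Libraries of mutants in each subunit of a heterodimeric triplet polymerase ribozyme were generated by PCR and transcribed. In triplicate, each went through one in vitro selection round: annealing with biotinylated primer, partner subunit and triplets; frozen incubation at −7 °C; gel excision of extended constructs; streptavidin-bead capture; RT-PCR. Fitness, taken from Illumina sequencing of input and output libraries, is the logarithm of a genotype's enrichment over wild-type enrichment, averaged across replicates with inverse-variance weights. The logarithm is base 2, and genotypes needed ≥10 input reads and ≥1 read per output to be kept.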
For GGAUCUUCUCGAUCUACCAAAAAAGACAAAUCUGCCACAAAGCUUGAGAGCGUCUUCGGAUGCAGAGGCGGCAGCCUUCGAUAGCGCGAUAGCGCCAUCGUUCUCAACUAUGACACGCAAAACGCGUGCUCCGUUGAAUGGAGUUUAUCAUG, the “polymerase ribozyme fitness (log ratio)” value is -0.507.

For GGAUCUUCUCGAUCUACCAAAAAAGACAAAUAUGCCACAAAGCUUGAGAGCAACUUCGGAUGCAGAAGCGGCACCCUUCGGUGGCGCGAUAGCGCCAACGAUCUCAACUAUGACACGCAAAACGCGUGCUCCGUUGAAUGGAGUUUAUCAUG, the “polymerase ribozyme fitness (log ratio)” value was not above -4.2.

In the case of GGAUCUUCUCGAUCUACCAAAAAAGACAAAUCUGCCACAAAGCUUGAGAGCAUCUUCGGAUGCAGAGGCGGCAGCCUUCGGUGGCGCGAUAGUGCCAACGUUCUCAACUAUGACACGCAAAACGCGUGCUCCGUUGAAUGGAGUUUAUCAUG, the “polymerase ribozyme fitness (log ratio)” value was -1.02.

With GGAUCUUCUCGAUCUACCAAAAAAGACAAAUCUGCCACAAAGCUUGAGAGCAUCUUCGGAUGCAGAGGCGGCAUCCUUCGGUGGAGCGAUGCGGCCAACGUUCUCAACUAUGACACGAACAACGCGUGCUCCGUUGAAUGGAGUUUAUCAUG, the “polymerase ribozyme fitness (log ratio)” value is not above -4.2.

For GGAUCUUCUCGAUCUACUAAAAAAGACAAAUCUGCCACAAAGUUUGAGAGCAUCUUCGGAUGCAGAGGCGGCAGCCUUCGGUGGCGCGAUAGCGCCGACGUUCUCAACUAUGACACGCAAAACGCGUGCUCCGUUGAAUGGAGUUUAACAUG, the “polymerase ribozyme fitness (log ratio)” value is not above -4.2.

GGAUCUUCUCGAUCUACCAAAAAAGACAAAUCUGCCACAAAGCUUGAGAGCAUCUUCGGAUGCAGAGGCGGCAGCUUUCGGUGGCGCGAUAGGGCCAACGUGCUAAACUAUGACACGCAAAACGCGUGCUCCGUUGAAUGGAGUUUAUCAUG: the “polymerase ribozyme fitness (log ratio)” value is not above -4.2.

Take GGAUCUUCUCGAUCUACCAAAAAAGACAAAUCUGCUACAAAGCUUGAGAGCCUCUUCGGAUGCAGAGGCGGCAGCCUUCUGUGCCGCGAUAGCGCCAACGUUCUCAUCUAUGACACGCAAAACGCGUGCUCCGUUGAAUGGAGCUUAUCAUG: the “polymerase ribozyme fitness (log ratio)” value was not above -4.2.

Consider GGAUCUUCUCGAUCUACCAAAAAAGACAAAUCUGCCACAAAGCUAGAGAGCAUGUUCGGAUGCAGAGGCGGCAACCUUCGGUGGCGCGAUCGCGCCAACGUUCUCAACUAUGACACGCAAAACGCGUGCUCCGUUGAAGGGAGUUUAUCAUG, for which the “polymerase ribozyme fitness (log ratio)” value is not above -4.2.

For GGAUCUUCUCGAUCUACGAAAAAAGACAAAUCUGCCACAUAGCUUGAGAGCAUCUUCGGAUGCAGAGGCGGCAGCCUUCGGUGGCUCGAUAGCGCCAACGUUCUCAACUAUGACACGCAAAACGCGUGCUCCGUUGAAUGGAGUUUAUCAUG, the “polymerase ribozyme fitness (log ratio)” value was -1.43.

As for GGAUCUUCUCGAUCUACCAAAAAAGAUAAAUCUGCCAAAAAGCUUGAGAGCAUCUUCGGAUGCAGAGGCGGCAGCCUUCGGUGGUGCGAUAGCGCCAACGUUCUCAACUAUGACACGCAAAACGCGUGCUCCGUUGAAUGGAGUUUAUCAUG, the “polymerase ribozyme fitness (log ratio)” value was -0.305.

GGAUCUUCUCGAUCUACCAAAAAAGACAAAUCUGCCACAUAGCUUGAGAGCAUCAUCGGUUGCAGCGGCGGCAGCCUUCGGUGGGGCGAUAGCGCCAACGUUCUCAACUAUGACAGGCAAAACGCGUGCUCCGUUGAAUGCAGUUUUUCAUG: the “polymerase ribozyme fitness (log ratio)” value was not above -4.2.

GGAUCUUCUCGAUCUACCAAAAAAGACAAAUCUGCCACAAAGCUUGAGAGCAUCUUCGGAUGCAGAGGCGGCAGCCUUCGGUGGCGCGAUAGCGUCAACGUUCUCAACUAUGACACGCAAAACGCGUGCUCCGUUGAAUGGAGUUUAUCAUG: the “polymerase ribozyme fitness (log ratio)” value amounted to 0.45.

Regarding GGAUCUUCUCGAUCUACCAAAAAAGACAAGUCUGCCACAAAGCUUGAGAGCAUCUUCGGAUGCAGAGGCGGCAGCCUUCGGUGGCGCGAUAGCGGCAACGUUCUCAACUAUGACACGCAAAACGCGUGCUCCGUUGAAUGGAGUUUAUCAUG, the “polymerase ribozyme fitness (log ratio)” value was -3.8.

GGAUCUUCUCGAUCUACCAAAAAAGACAAAUCUGCCACAAAGCUUGAGAGCAUCUUCGGAUGCAGAGGCGGCAGCUUUCGGUGGCGCGAUAUCGCCAACGUUCUCAACUAUGACACGCAAAACGCGUGAUCCGUUGAAUGGAGUUUAUCAUG: the “polymerase ribozyme fitness (log ratio)” value was -3.05.

As for GGAUCUUCUCGAUCUACCAAAAAAGACAAAUCUGCCACAAAGCUUGAGAGCCUCUUCGGAUGCAGAGGCGGCAGCCUUAGAUGUCGCGAUAGCGCCAACGUUCUCAACUGUCACACGCAAAACGCGUGCUCCGUUGAAUGGAGUUUAUCAUG, the “polymerase ribozyme fitness (log ratio)” value is not above -4.2.

As for GGAUCUUCUCGAUCUACCAAAAAAGACAAAUCUGCCACAAAGCGUGAGAGCAUCUUCGGAGGCAGAGGCGGCAGCCUUCGGUGGCGCGAUAGCGCCAACGUUCUCAACUAUGACACGCAAAACGCGUGCUCCGUUGAAUGGAGUUUAUCAUG, the “polymerase ribozyme fitness (log ratio)” value was not above -4.2.

As to GGAUCUUCUCGAUCUACCAAAAAAGAUAAAUCUGCCACAAAGCUUGAGAGCAUCUUCGGAUGCAGAGGCGACAGCCUUCGGUGGCGCGAUAGGGCCAACGUUCUCAACUAUGCCACGCAAAACGCGUGCUCCGGUGAAUGGAGUUUAUCAGG, the “polymerase ribozyme fitness (log ratio)” value was not above -4.2.

Turning to GGAUCUUCUCGAUCUACCAAAAAAGACAAAUCUGCCACAAAGCUUGAGAGCAUCUUCGGUUGCAGAGGCGGCAGCCUUCGUUUGCUCGAUAGAGCCAACGUUCUCAACUAUGACACGCAAAACGCGUGCUCCGUUGAAUGGAGUUUAUCAUG, the “polymerase ribozyme fitness (log ratio)” value was -0.433.

On to GGAUCUUCUCGAUCUACCAAAAAAGACAACUCUGCCACAAAGCUUGAGAGCAUCUUCGGAUGCAGAGGCGGCAGCCUUCGGUGGCGCGAUAGCGCCAACGUUCUCAACUAUGACACGCAAAACGCGUGCUCCGUUGAAUGGAGUUUAUCAUG, for which the “polymerase ribozyme fitness (log ratio)” value is -3.82.
